Assay: label from the status in PepcDB records

Row | Sequence | protein production
1 | VLYYKDFKIGLGKNQKENIKLLQDARANDLWMHVRNIPGSHLIVFCQKNAPKDDVIMELAKMLIKMQKDAFNSYEIDYTQRKFVKIIKGANVIYSKYRTISLKDT | failed
2 | KKVCVDTCVVIDGRITELIERGKLKDATIIIPEAVVSELEYQANMGREIGYKGIEELRKLIEKASEHNIKVEYYGERPTREEIFLAKSGEIDAMIRKVAKETNSILLTSDWIQYNLAKAQGIEAYFLEAAEEEVELVLD | not failed
3 | MIDLKKIKRFAQEIHDKNNDGHGFDHIERVVALARKILLTEPSANQELVLATYLHDTYDEKLTDDVPKQKVKVAQFLNELKIDKKLIDELFMIIDNMSFSSNLIERKTLSLNGQIVQDADRLDAMGAWGIVRTLEYGWAKNRVFYDPNLPPLDYNSKEDYHSQKNNSTLNHFYEKLFLLKDLLNTTEGKRLGEKRDKIMHLFVSQIEEEYKETHLLEHHHHHH | failed
4 | MDGRDLVRSVKAVGSGGAAGGLRTVRAAWRRRRADASGLPRRGAERARVPGPVQGVVPGPGGGVIRFARSELRITVAVNGAVFWGWDGAGPEPSYALAGRCPEPDPRAVLEPDKDGGWQVVAERGTVMVSRHGAVEVRTPGGVTLRRDLPPRWWEPADGGAAHWMQRSEVAADARFFGLGGRAAGPRLRGGTYRLWNTDPGHAVGPGDDPLYLTMPVQLVVADAATHLVFHDTSWDGTVTLREGEEGAGSGHDRAGTSELRMDGGPLRCWVMMGTPARVLHTWASLTGAPALPPAWALGHHHARRGSGSEQEVRGVVSGYQERGLPLDAVHLDNDHYDAHQVFTVDRDRFPKLPVLAEELRRDGIRLVSVVDPAVRAEPGNAVYDAGSAQDAFVRDAAGRVVEGVVWPGESVYPDFTHARVRKWWGGLYEERLAQGFAGFWHDLNEPVSFTAFGENTLPRSARHLLEGRGGDHREAHNVYALGMARAGYEGLRELSPQERPFIFSRSGWSGMQRYGGAWSGDVTTGWPGLRASLSLVIGLGLCGVPYSGPDVGGFDGSPSPELYLRWFQLGSYLPLFRTRAGLRAGRRELWEFGEDVLEHARVALVERRRLLPYFMTLAHLARRTGAPYVRPVWWGAPEDRALRDCEDAFLLGDSLLVAPVLDPGADRRAVQLPRGRWYDTVTEKAYDGPGQVLIGAPLSRIPVLARAGAVLPVRGDGGRLELEVWRPARGRTGGGLVVPDSGDGWDEPEIEQYVTRLRGQRVVVERDGDEGPGEPSYPVRVRGLPQA | failed
5 | MSEQKAPIIVKRIKKTSGGHHGGAWKIAYADFVTAMMAFFLLMWLLGSTTRGDLEGIAEYFKTPLKVAMQGGTGSGDSSSVIKGGGADLTRKNGQIKKGEVDADRKSYNLKAAQAELERLETAKLKQLKQRLEAAIDRNPTLKQFKRQLLIDITSEGLRIQIVDEQNRPMFNLASAELQPYTKVILHEIAQVLNDVENRISLSGHTDARPYANGERGYSNWELSADRANASRRELIVGGMSEAKMLRVVGLASSVPFTQAKPFDPVNRRISIIVLNKRTEEAITKEASGAEVTDQNGASDALDRRAPPSDVAAPAAAAK | failed
6 | MFQDNPLLAQLKQQIQEKLPKKEGTIKATERGFGFLESDDKKKSIFIPPAQMKKVMHGDKVVALIRTENEKEQAEPDQLIEQSITRFIGRIQMFKKRLQVMPDHPSLKNAIKAKTRKGVNPETLKEGDWVVAELTQHPLKGDQGFQCDITHKITDSDDKIAPWWVTLAQNDLPNSEPEGIEHWEIKDDADLVRVDMTATPFVTIDGESTKDMDDALYIKKLENGSFELTIAIADPTAYITPDDSMDKVARERGYTIYLPGRNIPMLPRDLSDELCSLIEGQERPALCCTVLVDANGNIQEDSINFFAATIKSHARLAYDHVSDFLETGSCDKWQPNDTIAQVVTELYEFAQVRTTWRETHAVIFPDRPDYRFELSEDNDVIAIHADMRRTANKLVEEAMVTANICAGKTLRAAFNMGVFNSHAGIKSDKLKDVVEIVNQLEGVDFTEEQIATLEGFSELRRLLGKQPTSYLDARIRKFQTYSETGNEPLPHYAMGLDIYATWTSPIRKYSDMINHRMLKAHILGKEPVQRPDDIVGEELAISRRFHRMAERNVSDWLYCRTLASEVEKETKYTAEIFDINRAGMRVRLIENGAAAFIPGSLIVDNKERIECNADQGIISIDKHETFKLGDQLHVVLAEVKEDTRNMVAKPLQAFPAPEPEEAPVVENEDATTNATTSADA | failed
7 | MTIVLIAFALYLLATALLTWAVLRDGNQSPARWLAPALAAVALHAGYHVLVAVRTAGGPDMHFFAALSLCGLGMAALTAVFGGRGRMAAVGVVVFPLSAILLASYHAYGHEPSSDLGWRLELHAWLALLAYATLGIAALLAIMLWLQERALRRRDFHSWLRALPPLTELETLLFRTITVGFVLLSLTLLTGLLFVQDFLAQRLLQKTVLSILSWIVFGALLIGRWRNGWRGTKAVHWTLTAMALLVLSFFGSKFVIELVLGPR | failed
8 | KLAYRHLIQPESAVRKLMILVNGRAENMLKWSELAYDFYHQGYDVLLFDHRGQGYSQRIIPQKGHLDEFRFYVDDMAKIIEKVTALFSYSTQHLLAHSMGALIATYYLANYDHHINKAVLSSPFYGILLKHPIRDELIITLMNILGQGERYVFGKGAYQQAHLEYNELTFCKTRMKWMNRINRKNPAINLGGPTFRWVHLCLNAIKRLPKVIPKIEIPILILQAEKEKIVDNKNLEKLTALFPNARCEVILNAKHEVLFEKDNVRRNVLKSVNHFLN | failed
9 | MVAIAQGLPHDLLAPAWQILILGDGSPTRHLQLLTGETTEVDVIDMSAIGHAGDRAPAQLQLIPGPRLRRQVWLRTASGQRLAYATSWWEAAHVDEYLQNRAMPIWTNLAQRKLELYRDIQAVYLGHSETLAAAFGEAGPFWGRHYLFWHDRRPITLIYEVFSPYLCRYLGPMGSTAYWANSALPFALEHHHHHH | failed
10 | MQFIPPILCKMNGRRQLNMHQQTKRLITISMLSAVAFILMFIKFPIPFLPPYLTLDFGDVPALLATFILGPVAGLIVEFIKNLLNFLFNIGDPVGPVANFLAASSFLLTAYFVTKYKDKIKSQIVGLSIATVVMTIVLSILNYFVLLPLYGMIMNLSDVVENVKIVIVSGVIPFNIIKGIVISIIFILLYNRLKNVLPK | failed
11 | MVLTSGAGASLVLLNTFSEIYMRISTRVIGGALIATLLTQLTACGTIFYPDRRGQIGGKIDPVVAAMDAIGILFYVIPGLIAFGIDFATGAIYYPGGRTAQVDPAKLQEAVSPDGKVDNLKLQAILESELGQRLPLNDPRLIQHRGSIEQLASLGLVPAA | failed
12 | MPQAPTLQSFIAGRWFGQHPAQSLRSAIDGHEVARTHEEAPDFAEALAFGRHQGGKALLALDFQQRAQRLKALALYLSGRKEQLYALSHHSGATRADSWIDIEGGNSTLFSYAGLGARELPSGNLLHEGPAQSLSKLGSFAGSHILVPRGGVAVHINAFNFPIWGMLEKFAPCFLAGMPCIVKPASATSYLTEAAMRLMHESGLLPEGSLQLVIGATGDLLDRLQGQDLVTFTGSASTAGRLRANPNLIRHSVPFNAEADSLNCAILAPDVSPDDEEFELFIKEVAREMTVKAGQKCTAIRRAIIPAKQLDAVATRLRERLSKVVVGDPAVEGVRMGALASHEQQRDVAERLQSLLHSSDLLFGARDGFEPRGTNVSQGAFFAPTLLLARDPMAEGGAHDIEAFGPVSTLMAYDDLDQALELASRGKGSLVASLVTKSPAIAAQVIPRAAAWHGRLLVLDRECAGESTGHGSPLPQLKHGGPGRAGGGEELGGLRAVKHYLQRAAIQGSPSMLAAVTGEYVRGAKVLETEVHPFRRYFQDLRIGESLLTHRRTVTEADLVNFGCLSGDHFYMHFDEIAARESQFGKRIAHGYFVLSAAAGLFVSPGPGPVLANYGLDTLRFITPVGIGDTLQARLTCKRKIDQGKLSPQGTPQGVVAWDVEVSNQLGEVVASYDILTLVAKRTE | failed
13 | MLDASPATARSPLEKRRPNVCREEQLTLVRLSRPCAQAFIDTIQFWKQGCSGPRWCVGYERRIRYYIIYRHVYATEHQTVFRCCPGWIQWDDEPGCFSSLSSLGTHFSGRECSYQDTRQCLCSQGFHGPHCQYDINECAVDNGGCRDRCCNTIGSYYCRCQAGQKLEEDGRGCEDVDECAVVNGGCQQRCINTLGTFHCECDTGYRRHADERTCIRIELEIVNICEKNNGGCSHHCEPAIGGAHCSCNHGHQLDTDGKTCIALDEQLEEEEEEIDILRFPGRLAQNPPQPFPYLDPSLTASYEDEDNDDADSEAEGEVQGLTALYRVVCLDGTFGLDCSLSCEDCMNGGRCQEGKSGCLCPAEWTGLICNESSVLRTGEDQQAPAGCLKGFFGKNCKRKCHCANNVHCHRVYGACMCDLGRYGRFCHLSCPRGAYGASCSLECQCVEENTLECSAKNGSCTCKSGYQGNRCQEGTIR | failed
14 | RGRYRQYNSEILEEAISVVMSGKMSVSKAQSIYGIPHSTLEYKVKERLGTLKNPPKKKMKLMR | not failed
15 | MGNFLRRSCAVHPASGDGGRGRHVDEPPQQRPSSVRIKVRMRRDQLEELLYLARRGDQSDDGGKIGFLILKECMEGRLPASVLGSGGDVRSQRRGSYMVYRRLGSITEE | failed
16 | SLSQTTNIKEQTDTGLAPPAPAITTNSAAIEEQANSSIRKLYHTLNTMPNTSMADRISQISAYFKGTKYILGSLGEGPNARYDQFPRYRVDGFDCDTYVNTVLSLALANSLESFQECLKHTRYKNGKRSYINRNHFTSIDWNNYNQKRGLLKDITFSIRNEKKQPVALYANALINKPQWYNHKTIDTIRLQKQDKNEQEKRLVELKAKGKTLETSLSNVPYIPFTALFSENKPNLHLFSQIPNGAVIEIIRPNWDLRQQIGTELDISHLGFAIWINNELFFRQASSQYGKVVDVSLIDYLDKARSSPTIKGINIQVVLPEKPVSNGCQLFDIR | not failed
17 | MIEINIQGSSSAGNNYLLADGNSSLMLEAGLKPKDIMKQGINFSNIQGLLVTHEHGDHSKYINDILLAGRFDVWASRGTLEGLGINRRSHILKANQQQKIGDWLVKPFATIHDDKKARAREPLGFLILSPSGKKIVFATDTNYLPKTFKDVTHWLVECNHDIKLVRQSKLPKSVQDRILRTHMSIDACKKFFQSTDLTKTEEIYLIHLSDKNSDPEKFKEEIEKITNKKIIIA | failed
18 | MSVPGPSSPDGALTRPPYCLEAGEPTPGLSDTSPDEGLIEDLTIEDKAVEQLAEGLLSHYLPDLQRSKQALQELTQNQVVLLDTLEQEISKFKECHSMLDINALFAEAKHYHAKLVNIRKEMLMLHEKTSKLKKRALKLQQKRQKEELEREQQREKEFEREKQLTARPAKRM | failed
19 | MFQPVTQKRLTNVSVVRMRKGGKRFEIACYPNMVMAYREGHVRDLDEVIQVEDVFENVSKGKLAANADLERCFGTRDRHAVLLQILLHGDLQVSDRERQYQSTRKLHEIASVVAAKTISRETKKPLPVGLIEKALREIHFAVQPNRPAKAQALEVIPLLRAQSGLDLERARLRLRIHVPSQRDAKAVKARLEPLQQGETDGTHSSSRSDSVRMKDGSAAVESESEEWLPGGALLWTVQADPGAFREIEEIVQRETNQQGIVEVASLRVLDDEDESILS | failed
20 | MKRLLLCLIVIAQTILSLTAQTTEELSRMQTLIDHMAYTEALAWADSCSLQDEQALHLRAKALSELGRHPEAFAVYQRIVRMDPHDAVAYRLGAALQVDMQDYATAAEMLHQGYERTSDIPTGYDLAKLLVHIGQDSTALVITDRILRQDSLPPVIRLRAKALNKRQQPSQAIALLEEQMLRDSTDFLTLIDLATLYGQVEETRRQEQVTARYLQTDSLNVAVLLAHAESMMMLQEADSALHDYERIIGRGHFPTSFKDLFYCGLAYYKTGRWAVAEECFRRADESAFQQNYLTKYYLGMCAYRQKLWEEAEKRLQKLLDLIEPKTDRLTDVHTMLGRCANEQGRTETAISHLRYAIEYDSGNSEACLLLAQCFEKTGNRTGAIHMYRRVLDKERASTAKNDIEGFRRLAEARSRLSLLKADDSEDEETP | failed
